Assay results taken from patent US20180186885A1 (University of California, published 2018).

Legend:
[1] = target: T1, mouse Fzd7 P188L (mouse, UniProt Q61090 33-572); assay: reactivity of Fab with mouse Fzd7 point mutants (FIG. 4C-D)
T1 construct: also called MEF-Fzd7P188L

[2] = target: FZD7 protein on human cancer cells (OVCAR-4, MDA-MB-231, primary tumour tissue) (human, UniProt O75084 33-574); assay: cell-based or functional assay

Row | Binder | binding result [1] | fold decrease in TOP-Flash Wnt reporter (luciferase) activity in MDA-MB-231 cells treated with Wnt3a (0-5 nM), FZD7-Fab-1791 at 200 nM [2] [fold]
1 | FZD7-Fab-1791 (Fab) light: DIVMTQSPKSMSMSVGERVTLRCKASENVLNYVSWYQQKPEQSPKLLIYGASNRYTGVPDRFTGSGSATDFTLTISSVQAEDLADYHCGQSYRYPTFGAGTKLELKRADAAPTVSIFPPSSEQLTSGGASVVCFLNNFYPKDINVKWKIDGSERQNGVLNSWTDQDSKDSTYSMSSTLTLTKDEYERHNSYTCEATHKTSTSPIVKSFNRNESYPYDVPDYAS heavy: EVQPVESGGGLVQPKGSLKLSCAASGFTFNTYAMHWVRQAPGKGLEWVARIRSKSNNYAKNYDDSVKDRFTISRDDSQSMLYLQMNNLKTEDTAMYYCVRENYGGRFDYWGQGTTLTVSSAKTTPPSVYPLAPGSAAQTNSMVTLGCLVKGYFPEPVTVTWNSGSLSSGVHTFPAVLQSDLYTLSSSVTVPSSTWPSETVTCNVAHPASSTKVDKKIVPRDSHHHHHHH | binds | ~3
2 | FZD7-Fab-1291 (Fab, The entries as printed end in tag-like residues) light: DVVMSQSPSSLAVSVGEKVTMSCKSSQSLLYSSNQKNYLAWYQQKPGQSPKLLIYWASTRESGVPDRFTGSGSGTDFTLTISSVKAKDLAVYYCQQYYSYPTFGGGTKLEIKRADAAPTVSIFPPSSEQLTSGGASVVCFLNNFYPKDINVKWKIDGSERQNGVLNSWTDQDSKDSTYSMSSTLTLTKDEYERHNSYTCEATHKTSTSPIVKSFNRNESYPYDVPDYAS heavy: EVQLVESGGGLVKPGGSLKLSCAASGFTFSSYAMSWVRQTPEKRLEWVATISDGGSYTRYPDKLKGRFTISRDNAKNNLYLQMSHLKSEDTAMYYCARVGGRRDYFDYWGQGTTLTVSSAKTTPPSVYPLAPGSAAQTNSMVTLGCLVKGYFPEPVTVTWNSGSLSSGVHTFPAVLQSDLYTLSSSVTVPSSTWPSETVTCNVAHPASSTKVDKKIVPRDCHHHHHHH | binds | 
